B1: scFv; the commonest letter at each place (parent)
chain 1: EVKLDETGGGLVQPGRPMKLSCVASGFTFSDYWMNWVRQSPEKGLEWVAQIRNKPYNYETYYSDSVKGRFTISRDDSKSSVYLQMNNLRVEDMGIYYCTGSYYGMDYWGQGTSVTVS
chain 2: DVVMTQTPLSLPVSLGDQASISCRSSQSLVHSNGNTYLRWYLQKPGQSPKVLIYKVSNRFSGVPDRFSGSGSGTDFTLKISRVEAEDLGVYFCSQSTHVPWTFGGGTKLEIK

Data set [1] covers variants of B1. Description: Kd (Tite-Seq). Particulars: with fluorescein; format: scFv 4-4-20, heavy + light.
In data set [2] the parent is B1. The experiment in a line: yeast surface expression (ratio to wild type); higher = more expressed. Conditions: format: scFv 4-4-20, heavy + light.

As to chain 1 W33C N35W, the Kd (in general, a measure of binding affinity in units of concentration) in data set [1] was 5.37 µM. Further, the yeast surface expression in data set [2] is 0.456.
The corresponding values for chain 1 W33S W36D are no less than 10 µM and 0.562.
The corresponding values for chain 1 W33S W36I are no less than 10 µM and 0.619.
The corresponding values for chain 1 W33S W36L are no less than 10 µM and 0.535.
For the variant chain 1 W36T V37D, the Kd in data set [1] was no less than 10 µM. In addition, the yeast surface expression in data set [2] came out at 0.28.
The corresponding values for chain 1 W36T V37M are no less than 10 µM and 0.422.
The corresponding values for chain 1 W36T V37L are no less than 10 µM and 0.507.
The corresponding values for chain 1 T28W S30A are 0.00444 µM and 0.868.
With chain 1 T28W S30F, the Kd in data set [1] was determined as 0.00606 µM. For the same variant, the yeast surface expression in data set [2] came to 0.69.
The corresponding values for chain 1 W33Y N35R are no less than 10 µM and 0.524.
The corresponding values for chain 1 T28Y M34W are 0.0692 µM and 0.6.
The corresponding values for chain 1 T28Y M34L N35C are no less than 10 µM and 0.495.
For the variant chain 1 W33T M34S V37E, in data set [1], the Kd is no less than 10 µM. Moreover, in data set [2], the yeast surface expression was 0.787.
Take chain 1 W33V N35T: the Kd in data set [1] is no less than 10 µM. For the same variant, the yeast surface expression in data set [2] is 0.89.
Take chain 1 W33V N35Q: the Kd in data set [1] is no less than 10 µM. Moreover, the yeast surface expression in data set [2] came out at 0.772.
The corresponding values for chain 1 T28W F29P S30F are no less than 10 µM and 0.601.
For the variant chain 1 W33I N35Y V37C, in data set [1], the Kd is no less than 10 µM. For the same variant, the yeast surface expression in data set [2] amounted to 0.443.
The corresponding values for chain 1 W33G M34I are no less than 10 µM and 0.433.
For the variant chain 1 W33P N35Y, the Kd in data set [1] amounted to 0.205 µM. Further, the yeast surface expression in data set [2] was found to be 0.393.
The corresponding values for chain 1 T28W Y32W are no less than 10 µM and 0.65.
The corresponding values for chain 1 W33N M34F are no less than 10 µM and 0.815.
The corresponding values for chain 1 W33N M34D are no less than 10 µM and 0.567.
On to chain 1 W36G V37N, for which the Kd in data set [1] is no less than 10 µM. Besides, the yeast surface expression in data set [2] was 0.597.
The corresponding values for chain 1 W36G V37Q are no less than 10 µM and 1.13.
Take chain 1 W33I N35W: the Kd in data set [1] was no less than 10 µM. Moreover, the yeast surface expression in data set [2] turned out to be 0.803.
The corresponding values for chain 1 W33Q N35E are no less than 10 µM and 0.594.
Turning to chain 1 W33Q N35W, in data set [1], the Kd was no less than 10 µM. Moreover, the yeast surface expression in data set [2] is 1.01.
The corresponding values for chain 1 W33Q N35Y are no less than 10 µM and 0.315.
chain 1 T28W D31R: in data set [1], the Kd was found to be 0.0171 µM. Further, in data set [2], the yeast surface expression came out at 0.51.
Consider chain 1 T28W D31F, for which the Kd in data set [1] was 0.116 µM. For the same variant, the yeast surface expression in data set [2] is 0.553.
The corresponding values for chain 1 T28W D31Y are 0.11 µM and 0.371.
For the variant chain 1 W33L V37D, the Kd in data set [1] worked out at 1.47 µM. The yeast surface expression in data set [2] stood at 0.591.
Take chain 1 W33T N35Q: the Kd in data set [1] was no less than 10 µM. In addition, the yeast surface expression in data set [2] came out at 0.887.
The corresponding values for chain 1 W33R W36Y are no less than 10 µM and 0.561.
Consider chain 1 W33E W36L, for which the Kd in data set [1] was no less than 10 µM. Moreover, the yeast surface expression in data set [2] was 0.622.
Take chain 1 W33R N35Y: the equilibrium dissociation constant (Kd) in data set [1] was no less than 10 µM. Also, the yeast surface expression in data set [2] was found to be 0.794.
The corresponding values for chain 1 W33C M34C W36A are no less than 10 µM and 0.449.
The corresponding values for chain 1 T28W S30G Y32K are 1.55 µM and 0.576.
For the variant chain 1 W33E M34W, in data set [1], the Kd is no less than 10 µM. The yeast surface expression in data set [2] was 0.966.
The corresponding values for chain 1 W33E M34L are no less than 10 µM and 0.721.
The corresponding values for chain 1 W33D V37C are no less than 10 µM and 0.802.
The corresponding values for chain 1 W33N N35I are no less than 10 µM and 0.657.
With chain 1 W33N N35M, the Kd in data set [1] was no less than 10 µM. In addition, in data set [2], the yeast surface expression amounted to 0.792.
The corresponding values for chain 1 W33N N35T are no less than 10 µM and 0.979.
Consider chain 1 W108C, for which, in data set [1], the dissociation constant (Kd) was 0.000646 µM. Moreover, in data set [2], the yeast surface expression worked out at 0.717.
The corresponding values for chain 1 W108E are no less than 10 µM and 0.463.
The corresponding values for chain 1 W108D are no less than 10 µM and 0.345.
The corresponding values for chain 1 W108A are 0.00209 µM and 0.588.
On to chain 1 T28V D31M, for which the Kd in data set [1] worked out at 0.00444 µM. In data set [2], the yeast surface expression came to 0.587.
For chain 1 W33G W36I, the Kd in data set [1] was no less than 10 µM. Further, the yeast surface expression in data set [2] was 0.622.
Consider chain 1 W36H V37F, for which the Kd in data set [1] was no less than 10 µM. The yeast surface expression in data set [2] came to 0.307.
The corresponding values for chain 1 W36H V37E are no less than 10 µM and 0.267.
The corresponding values for chain 1 W33K V37L are 0.345 µM and 0.761.
The corresponding values for chain 1 W33H V37F are no less than 10 µM and 0.859.
Turning to chain 1 W36D V37M, the Kd in data set [1] is no less than 10 µM. In data set [2], the yeast surface expression is 1.25.
The corresponding values for chain 1 W36D V37H are no less than 10 µM and 0.21.
The corresponding values for chain 1 T28Y F29W are no less than 10 µM and 0.672.
The corresponding values for chain 1 W33D M34Q are no less than 10 µM and 0.754.

Values taken from the FLAb antibody collection (doi:10.7554/elife.23156).
